Measurements reported in US20100081621, “Crystal structure of the catalytic domain of the viral restriction factor APOBEC3G” (published 2010).

What was measured:
[1] = molecular target: APOBEC3G D316R/D317R (Homo sapiens, UniProt Q9HC16 Q9HC16:1-384, D316R,D317R); assay: FP; higher binding than wt; 5 mM MgCl2, 37 C; details: tags: Sf9, pAcG2T; label: internal fluorescein-dT
Protocol: Apo3G-DNA binding were monitored by changes in steady state fluorescence depolarization (rotational anisotropy). Reaction mixtures (70 μl), containing an F-labeled DNA ([…]) in buffer (50 mM HEPES, pH 7.3, 1 mM DTT and 5 mM MgCl₂) and varying concentration of 0 to 500 nM Apo3G, were incubated at 37° C. The sequence of the ssDNA is: tta gat gag tgt aa(FdT) gtg ata tat gtg tat. Rotational anisotropy was measured as described previously (Chelico et al., 2006). The fraction of DNA bound to protein was determined as described previously (Bertram et al., 2004).

[2] = molecular target: APOBEC3G-CD2 (Homo sapiens, UniProt Q9HC16 Q9HC16:197-380); assay: about 2-fold decrease in processivity and polarity; details: tags: GST removed by PreScission protease; label: internal fluorescein-dT
Text: (§1) FIG. 1B is Apo3G processivity and 3′_{—}5′ deamination bias was characterized on an 85-nt internally F-labeled ssDNA with two CCC motifs 30-nt apart. Single deaminations of the 5′C and 3′C that are spaced by 30-nt on the ssDNA substrate are detected as the appearance of labeled 67- and 48-nt fragments, respectively; double deamination of both Cs on the same molecule results in 30-nt labeled fragment (5′C and 3′C). Substrate usage (%) is less than 15% to maintain single-hit kinetics. The ‘Processivity factor’ is defined as the ratio of the observed fraction of double deaminations (occurring at both 5′C and 3′C on the same molecule) to the predicted fraction of independent double deaminations (Chelico et al., 2006). […] The deamination bias is measured by the ratio of 5′C/3′C deaminations. Deamination patterns are shown using full length Apo3G (lane 2) and Apo3G-CD2 (lanes 3, 4). As a control, no Apo3G or Apo3G-CD2 enzyme was added in lane 1.
(§2) Apo3G (0.024-μM) was allowed to react with 500 nM FdT incorporated ssDNA for […] and subsequently treated with UDG and resolved on 16% UREA PAGE for analysis as described previously¹⁰. Specific activity, measured as fmoles substrate deaminated per pg enzyme per minute, was calculated from the percent deamination of an ssDNA substrate over a range of enzyme concentrations. […]

[3] = molecular target: APOBEC3G full-length (E. coli) (Homo sapiens, UniProt Q9HC16 Q9HC16:1-384); assay: processive deamination with bias to the 5' CCC; details: tags: GST, pGEX-6P1, E. coli; label: internal fluorescein-dT
Text: as §1, §2

APOBEC3G-CD2, sequence (Q9HC16 197-380, one chain of several): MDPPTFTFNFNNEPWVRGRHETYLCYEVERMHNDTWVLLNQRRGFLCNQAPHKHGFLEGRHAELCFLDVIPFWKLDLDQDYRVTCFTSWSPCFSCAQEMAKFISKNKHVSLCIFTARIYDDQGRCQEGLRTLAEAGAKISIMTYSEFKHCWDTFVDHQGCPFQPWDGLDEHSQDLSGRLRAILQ
APOBEC3G full-length (E. coli), sequence (Q9HC16 whole entry, one chain of several): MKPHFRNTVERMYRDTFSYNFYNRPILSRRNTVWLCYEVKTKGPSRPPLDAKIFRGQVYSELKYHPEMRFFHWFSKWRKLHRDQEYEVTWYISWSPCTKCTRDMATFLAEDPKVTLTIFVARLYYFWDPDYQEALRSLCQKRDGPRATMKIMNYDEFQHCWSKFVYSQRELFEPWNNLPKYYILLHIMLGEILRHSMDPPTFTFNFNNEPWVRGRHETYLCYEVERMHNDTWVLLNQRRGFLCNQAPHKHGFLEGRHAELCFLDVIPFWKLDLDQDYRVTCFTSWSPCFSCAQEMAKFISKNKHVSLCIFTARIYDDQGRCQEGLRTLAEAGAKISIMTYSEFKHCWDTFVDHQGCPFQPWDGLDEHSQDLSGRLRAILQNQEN
APOBEC3G D316R/D317R, sequence (Q9HC16 whole entry D316R/D317R, one chain of several): as the sequence (Q9HC16 whole entry, one chain of several) above, with D316R, D317R counted along it

Binder	binding signal [1]	binding result [2]	binding result [3]
TTAGATGAGTGTAATGTGATATATGTGTAT (ssDNA, [15 (fluorescein-dT)]) [anisotropy ssDNA]	2 fold of wt		
85-nt processivity ssDNA (ssDNA, [31 (FdT = fluorescein-dT, written as T)]) DNA: AAAGAGAAAGTGATACCCAAAGAGTAAAGTTAGATAGAGAGTGATACCCAAAGAGTAAAGTTAGTAAGATGTGTAAGTATGTTAA		binds	binds
